For this data set the following is noted: Pyrococcus furiosus (strain ATCC 43587 / DSM 3638 / JCM 8422 / Vc1), 60 °C, GdnHCl, Fluorescence, Tris, NaCl, transition: 2, reversible: yes, whole UniProt chain shown.

B1: L-asparaginase wild type, Q8TZE8 (protein)
chain: MKILLIGMGGTIASVKGENGYEASLSVKEVLDIAGIKDCEDCDFLDLKNVDSTLIQPEDWVDLAETLYKNVKKYDGIIVTHGTDTLAYTSSMISFMLRNPPIPIVFTGSMIPATEENSDAPLNLQTAIKFATSGIRGVYVAFNGKVMLGVRTSKVRTMSRDAFESINYPIIAELRGEDLVVNFIPKFNNGEVTLDLRHDPKVLVIKLIPGLSGDIFRAAVELGYRGIVIEGYGAGGIPYRGSDLLQTIEELSKEIPIVMTTQAMYDGVDLTRYKVGRLALRAGVIPAGDMTKEATVTKLMWILGHTNNVEEIKVLMRKNLVGELRD
For B1, under “pH 8”, the denaturant m value turned out to be 5.12 kcal/mol/M, the “denaturant midpoint (higher = more stable)” value was 3.04 M and the unfolding free energy is 15.7 kcal/mol. Moreover, where the note is “pH 9”, the denaturant m value turned out to be 0.9 kcal/mol/M, the “denaturant midpoint (higher = more stable)” value is 1.99 M and the unfolding free energy is 1.6 kcal/mol.
